Source: patent US20230250154A1 (CYTONICS, published 2023)

T1: MMP1 (human, UniProt P03956 100-469, limits assumed)
T1 sequence (looked up): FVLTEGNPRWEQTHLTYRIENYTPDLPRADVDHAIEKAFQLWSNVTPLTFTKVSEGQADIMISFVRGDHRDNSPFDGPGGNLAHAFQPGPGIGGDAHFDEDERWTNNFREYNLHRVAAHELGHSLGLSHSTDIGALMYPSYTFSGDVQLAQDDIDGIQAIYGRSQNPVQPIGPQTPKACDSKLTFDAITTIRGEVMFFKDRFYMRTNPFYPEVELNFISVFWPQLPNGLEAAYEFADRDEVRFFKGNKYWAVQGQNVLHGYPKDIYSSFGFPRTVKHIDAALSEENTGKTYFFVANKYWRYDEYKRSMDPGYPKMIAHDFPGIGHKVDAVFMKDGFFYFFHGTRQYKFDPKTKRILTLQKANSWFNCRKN

T2: Cathepsin G (UniProt P08311 21-244)
T2 sequence (looked up): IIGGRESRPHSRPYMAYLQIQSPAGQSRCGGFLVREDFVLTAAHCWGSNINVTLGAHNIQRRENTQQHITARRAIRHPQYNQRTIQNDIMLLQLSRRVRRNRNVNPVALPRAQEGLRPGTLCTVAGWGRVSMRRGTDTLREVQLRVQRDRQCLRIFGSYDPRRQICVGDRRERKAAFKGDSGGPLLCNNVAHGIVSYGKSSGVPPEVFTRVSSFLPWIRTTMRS

T3: MMP7 (UniProt P09237 95-267, limits assumed)
T3 sequence (looked up): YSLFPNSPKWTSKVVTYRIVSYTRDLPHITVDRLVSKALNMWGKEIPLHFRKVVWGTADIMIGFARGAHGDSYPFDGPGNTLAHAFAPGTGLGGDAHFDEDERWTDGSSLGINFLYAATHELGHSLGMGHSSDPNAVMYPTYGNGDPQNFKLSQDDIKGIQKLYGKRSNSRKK

T4: MMP2 (human, UniProt P08253 110-660, limits assumed)
T4 sequence (looked up): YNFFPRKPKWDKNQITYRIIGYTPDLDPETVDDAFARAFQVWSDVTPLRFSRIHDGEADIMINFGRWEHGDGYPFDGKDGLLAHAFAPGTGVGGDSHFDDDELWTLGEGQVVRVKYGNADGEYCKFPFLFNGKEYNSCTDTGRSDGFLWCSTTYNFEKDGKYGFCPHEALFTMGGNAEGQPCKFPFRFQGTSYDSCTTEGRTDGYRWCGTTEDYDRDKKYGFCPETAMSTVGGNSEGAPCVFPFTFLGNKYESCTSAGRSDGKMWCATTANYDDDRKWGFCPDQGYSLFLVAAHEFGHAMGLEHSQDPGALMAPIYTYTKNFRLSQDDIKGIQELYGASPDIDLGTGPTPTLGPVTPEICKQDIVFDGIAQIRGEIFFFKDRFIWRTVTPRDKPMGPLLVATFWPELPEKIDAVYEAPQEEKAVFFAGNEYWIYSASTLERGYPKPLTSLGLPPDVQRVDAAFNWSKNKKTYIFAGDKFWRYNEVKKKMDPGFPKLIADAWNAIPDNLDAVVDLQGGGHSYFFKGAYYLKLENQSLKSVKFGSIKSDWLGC

T5: ADAMTS5 (human, UniProt Q9UNA0 262-622, limits assumed)
T5 sequence (looked up): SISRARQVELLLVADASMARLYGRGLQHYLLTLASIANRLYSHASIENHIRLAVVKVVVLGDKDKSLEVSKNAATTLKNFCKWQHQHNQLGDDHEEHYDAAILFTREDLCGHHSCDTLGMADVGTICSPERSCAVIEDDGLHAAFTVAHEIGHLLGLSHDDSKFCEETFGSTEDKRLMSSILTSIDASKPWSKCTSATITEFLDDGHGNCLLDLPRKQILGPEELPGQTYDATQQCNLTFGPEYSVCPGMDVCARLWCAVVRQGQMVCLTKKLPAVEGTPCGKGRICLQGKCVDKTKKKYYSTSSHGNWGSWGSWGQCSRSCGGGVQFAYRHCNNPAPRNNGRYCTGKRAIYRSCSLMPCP

T6: ADAMTS4 (human, UniProt O75173 213-685, limits assumed)
T6 sequence (looked up): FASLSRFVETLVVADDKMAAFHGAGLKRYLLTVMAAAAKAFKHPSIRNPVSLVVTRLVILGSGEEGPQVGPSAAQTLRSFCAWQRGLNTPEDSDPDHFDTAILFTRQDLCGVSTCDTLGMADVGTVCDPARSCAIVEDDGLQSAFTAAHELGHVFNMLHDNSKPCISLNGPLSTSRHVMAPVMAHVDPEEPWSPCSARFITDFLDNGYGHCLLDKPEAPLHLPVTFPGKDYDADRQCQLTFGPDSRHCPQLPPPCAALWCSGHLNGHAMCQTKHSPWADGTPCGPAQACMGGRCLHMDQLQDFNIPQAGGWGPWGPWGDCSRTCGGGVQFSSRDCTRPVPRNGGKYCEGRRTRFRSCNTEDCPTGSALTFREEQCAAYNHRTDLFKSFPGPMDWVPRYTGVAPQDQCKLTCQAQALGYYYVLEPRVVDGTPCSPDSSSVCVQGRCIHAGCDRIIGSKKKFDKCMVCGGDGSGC

B1: Variant A2M, bait region SEQ ID NO 14 (other)
chain: SVSGKPQYMVLVPSLLHTETTEKGCVLLSYLNETVTVSASLESVRGNRSLFTDLEAENDVLHCVAFAVPKSSSNEEVMFLTVQVKGPTQEFKKRTTVMVKNEDSLVFVQTDKSIYKPGQTVKFRVVSMDENFHPLNELIPLVYIQDPKGNRIAQWQSFQLEGGLKQFSFPLSSEPFQGSYKVVVQKKSGGRTEHPFTVEEFVLPKFEVQVTVPKIITILEEEMNVSVCGLYTYGKPVPGHVTVSICRKYSDASDCHGEDSQAFCEKFSGQLNSHGCFYQQVKTKVFQLKRKEYEMKLHTEAQIQEEGTVVELTGRQSSEITRTITKLSFVKVDSHFRQGIPFFGQVRLVDGKGVPIPNKVIFIRGNEANYYSNATTDEHGLVQFSINTTNVMGTSLTVRVNYKDRSPCYGYQWVSEEHEEAHHTAYLVFSPSKSFVHLEPMSHELPCGHTQTVQAHYILNGGTLLGLKKLSFYYLIMAKGGIVRTGTHGLLVKQEDMKGHFSISIPVKSDIAPVARLLIYAVLPTGDVIGDSAKYDVENCLANKVDLSFSPSQSLPASHAHLRVTAAPQSVCALRAVDQSVLLMKPDAELSASSVYNLLPEKDLTGFPGPLNDQDDEDCINRHNVYINGITYTPVSSTNEKDMYSFLEDMGLKAFTNSKIRKPKMCPQLEHGPEGEGEGEGIPRYLTAENFFGVSEDLVVQISELEGRGSVEEPHTKLRKYFPETWIWDLVVVNSAGVAEVGVTVPDTITEWKAGAFCLSEDAGLGISSTASLRAFQPFFVELTMPYSVIRGEAFTLKATVLNYLPKCIRVSVQLEASPAFLAVPVEKEQAPHCICANGRQTVSWAVTPKSLGNVNFTVSAEALESQELCGTEVPSVPEHGRKDTVIKPLLVEPEGLEKETTFNSLLCPSGGEVSEELSLKLPPNVVEESARASVSVLGDILGSAMQNTQNLLQMPYGCGEQNMVLFAPNIYVLDYLNETQQLTPEIKSKAIGYLNTGYQRQLNYKHYDGSYSTFGERYGRNQGNTWLTAFVLKTFAQARAYIFIDEAHITQALIWLSQRQKDNGCFRSSGSLLNNAIKGGVEDEVTLSAYITIALLEIPLTVTHPVVRNALFCLESAWKTAQEGDHGSHVYTKALLAYAFALAGNQDKRKEVLKSLNEEAVKKDNSVHWERPQKPKAPVGHFYEPQAPSAEVEMTSYVLLAYLTAQPAPTSEDLTSATNIVKWITKQQNAQGGFSSTQDTVVALHALSKYGAATFTRTGKAAQVTIQSSGTFSSKFQVDNNNRLLLQQVSLPELPGEYSMKVTGEGCVYLQTSLKYNILPEKEEFPFALGVQTLPQTCDEPKAHTSFQISLSVSYTGSRSASNMAIVDVKMVSGFIPLKPTVKMLERSNHVSRTEVSSNHVLIYLDKVSNQTLSLFFTVLQDVPVRDLKPAIVKVYDYYETDEFAIAEYNAPCSKDLGNADYKDDDDKGASHHHHHH
B2: Variant A2M, bait region SEQ ID NO 13 (other)
chain: SVSGKPQYMVLVPSLLHTETTEKGCVLLSYLNETVTVSASLESVRGNRSLFTDLEAENDVLHCVAFAVPKSSSNEEVMFLTVQVKGPTQEFKKRTTVMVKNEDSLVFVQTDKSIYKPGQTVKFRVVSMDENFHPLNELIPLVYIQDPKGNRIAQWQSFQLEGGLKQFSFPLSSEPFQGSYKVVVQKKSGGRTEHPFTVEEFVLPKFEVQVTVPKIITILEEEMNVSVCGLYTYGKPVPGHVTVSICRKYSDASDCHGEDSQAFCEKFSGQLNSHGCFYQQVKTKVFQLKRKEYEMKLHTEAQIQEEGTVVELTGRQSSEITRTITKLSFVKVDSHFRQGIPFFGQVRLVDGKGVPIPNKVIFIRGNEANYYSNATTDEHGLVQFSINTTNVMGTSLTVRVNYKDRSPCYGYQWVSEEHEEAHHTAYLVFSPSKSFVHLEPMSHELPCGHTQTVQAHYILNGGTLLGLKKLSFYYLIMAKGGIVRTGTHGLLVKQEDMKGHFSISIPVKSDIAPVARLLIYAVLPTGDVIGDSAKYDVENCLANKVDLSFSPSQSLPASHAHLRVTAAPQSVCALRAVDQSVLLMKPDAELSASSVYNLLPEKDLTGFPGPLNDQDDEDCINRHNVYINGITYTPVSSTNEKDMYSFLEDMGLKAFTNSKIRKPKMCPQLEHGPRYLTAEGEGEGIPENFFGVSEDLVVQISELEGRGSVEEPHTKLRKYFPETWIWDLVVVNSAGVAEVGVTVPDTITEWKAGAFCLSEDAGLGISSTASLRAFQPFFVELTMPYSVIRGEAFTLKATVLNYLPKCIRVSVQLEASPAFLAVPVEKEQAPHCICANGRQTVSWAVTPKSLGNVNFTVSAEALESQELCGTEVPSVPEHGRKDTVIKPLLVEPEGLEKETTFNSLLCPSGGEVSEELSLKLPPNVVEESARASVSVLGDILGSAMQNTQNLLQMPYGCGEQNMVLFAPNIYVLDYLNETQQLTPEIKSKAIGYLNTGYQRQLNYKHYDGSYSTFGERYGRNQGNTWLTAFVLKTFAQARAYIFIDEAHITQALIWLSQRQKDNGCFRSSGSLLNNAIKGGVEDEVTLSAYITIALLEIPLTVTHPVVRNALFCLESAWKTAQEGDHGSHVYTKALLAYAFALAGNQDKRKEVLKSLNEEAVKKDNSVHWERPQKPKAPVGHFYEPQAPSAEVEMTSYVLLAYLTAQPAPTSEDLTSATNIVKWITKQQNAQGGFSSTQDTVVALHALSKYGAATFTRTGKAAQVTIQSSGTFSSKFQVDNNNRLLLQQVSLPELPGEYSMKVTGEGCVYLQTSLKYNILPEKEEFPFALGVQTLPQTCDEPKAHTSFQISLSVSYTGSRSASNMAIVDVKMVSGFIPLKPTVKMLERSNHVSRTEVSSNHVLIYLDKVSNQTLSLFFTVLQDVPVRDLKPAIVKVYDYYETDEFAIAEYNAPCSKDLGNADYKDDDDKGASHHHHHH

Experiments:
Assay in all cases: cell-based or functional assay
[1] = molecular target: T1, MMP1
[2] = molecular target: MMP13 (human, UniProt P45452 104-471, limits assumed)
[3] = molecular target: T2, Cathepsin G
[4] = molecular target: MMP9 (human, UniProt P14780 107-707, limits assumed)
MMP9, sequence (P14780 107-707 limits assumed): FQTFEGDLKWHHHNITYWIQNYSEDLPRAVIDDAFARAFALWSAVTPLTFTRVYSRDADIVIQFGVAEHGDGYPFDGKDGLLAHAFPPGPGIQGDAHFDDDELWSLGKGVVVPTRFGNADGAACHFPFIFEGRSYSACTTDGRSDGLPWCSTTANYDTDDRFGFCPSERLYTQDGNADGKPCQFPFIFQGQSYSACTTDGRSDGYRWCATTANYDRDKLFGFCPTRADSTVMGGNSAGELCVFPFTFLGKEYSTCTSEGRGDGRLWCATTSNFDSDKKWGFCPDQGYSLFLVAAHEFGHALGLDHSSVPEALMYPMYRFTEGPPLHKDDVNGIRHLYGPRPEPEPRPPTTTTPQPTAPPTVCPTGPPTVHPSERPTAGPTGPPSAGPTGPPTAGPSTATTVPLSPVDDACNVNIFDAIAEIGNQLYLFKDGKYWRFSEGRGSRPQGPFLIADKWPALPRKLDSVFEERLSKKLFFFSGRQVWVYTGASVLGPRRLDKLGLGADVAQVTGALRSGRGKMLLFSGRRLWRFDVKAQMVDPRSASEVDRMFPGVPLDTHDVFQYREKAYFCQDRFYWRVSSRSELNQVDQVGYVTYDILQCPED

[5] = molecular target: MMP3 (human, UniProt P08254 100-477, limits assumed)
MMP3, sequence (P08254 100-477 limits assumed): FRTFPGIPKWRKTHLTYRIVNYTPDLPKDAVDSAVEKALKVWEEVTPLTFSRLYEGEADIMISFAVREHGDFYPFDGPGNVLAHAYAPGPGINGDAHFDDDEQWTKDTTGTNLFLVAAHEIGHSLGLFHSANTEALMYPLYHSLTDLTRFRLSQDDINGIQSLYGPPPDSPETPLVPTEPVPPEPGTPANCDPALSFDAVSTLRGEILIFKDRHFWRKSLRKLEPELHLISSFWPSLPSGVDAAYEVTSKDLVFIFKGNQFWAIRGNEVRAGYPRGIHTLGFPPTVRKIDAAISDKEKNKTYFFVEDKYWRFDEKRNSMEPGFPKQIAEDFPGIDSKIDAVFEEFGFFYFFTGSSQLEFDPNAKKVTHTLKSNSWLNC

[6] = molecular target: T3, MMP7
[7] = molecular target: MMP8 (human, UniProt P22894 101-467, limits assumed)
MMP8, sequence (P22894 101-467 limits assumed): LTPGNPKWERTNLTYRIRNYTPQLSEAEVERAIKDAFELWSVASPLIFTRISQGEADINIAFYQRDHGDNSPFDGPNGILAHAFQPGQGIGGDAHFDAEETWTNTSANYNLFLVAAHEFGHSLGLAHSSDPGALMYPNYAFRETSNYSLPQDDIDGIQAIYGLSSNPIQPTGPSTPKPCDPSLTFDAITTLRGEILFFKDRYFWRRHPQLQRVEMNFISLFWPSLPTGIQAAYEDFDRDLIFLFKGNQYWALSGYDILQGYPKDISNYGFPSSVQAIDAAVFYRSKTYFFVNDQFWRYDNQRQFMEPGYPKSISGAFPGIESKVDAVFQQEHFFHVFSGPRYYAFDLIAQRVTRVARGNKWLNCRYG

[8] = molecular target: T4, MMP2
[9] = molecular target: T5, ADAMTS5
[10] = molecular target: Elastase
[11] = molecular target: T6, ADAMTS4

| Binder | Protease Inhibition (% of WT) [1] | Protease Inhibition (% of WT) [2] | Protease Inhibition (% of WT) [3] | Protease Inhibition (% of WT) [4] | Protease Inhibition (% of WT) [5] | Protease Inhibition (% of WT) [6] | Protease Inhibition (% of WT) [7] | Protease Inhibition (% of WT) [8] | Protease Inhibition (% of WT) [9] | Protease Inhibition (% of WT) [10] | Protease Inhibition (% of WT) [11] |
| --- | --- | --- | --- | --- | --- | --- | --- | --- | --- | --- | --- |
| B1 | 60 % of WT | 66 % of WT | 99 % of WT | 14 % of WT | 169 % of WT | 61 % of WT | 39 % of WT | 10 % of WT | 105 % of WT | 67 % of WT | 236 % of WT |
| B2 | 91 % of WT | 76 % of WT | 54 % of WT | 71 % of WT | 189 % of WT | 128 % of WT | 81 % of WT | 65 % of WT | 194 % of WT | 97 % of WT | 290 % of WT |
